Data: US11136407 (AIMM THERAPEUTICS B V, dated 2021)
Bridges are numbered along the chain shown (N, C = ends). Primed or numbered codes have the meaning given here. Where no end group is shown, it is not given here. The star is where a group is joined. PEG2′ = PEG2 spacer group linking an N-terminal biotin to the peptide; Biotin = O=C1N[C@H]2[C@H](CS[C@H]2CCCCC(=O)*)N1

T1: m4 circular peptide biotin-PEG(2)-CSPKKDVLETFTVKSSC (human, disulfide 1-17; not fully specified; printed as biotin-PEG(2)-CSPKKDVLETFTVKSSC)
T1 construct: synthetic peptide; also called circular constructed m4 peptide
T1 peptide: {Biotin-PEG2′}-CSPKKDVLETFTVKSSC

T2: mouse CD9 on platelets (mouse, UniProt P40240 1-226)
T2 construct: whole, on cells
T2 sequence (looked up): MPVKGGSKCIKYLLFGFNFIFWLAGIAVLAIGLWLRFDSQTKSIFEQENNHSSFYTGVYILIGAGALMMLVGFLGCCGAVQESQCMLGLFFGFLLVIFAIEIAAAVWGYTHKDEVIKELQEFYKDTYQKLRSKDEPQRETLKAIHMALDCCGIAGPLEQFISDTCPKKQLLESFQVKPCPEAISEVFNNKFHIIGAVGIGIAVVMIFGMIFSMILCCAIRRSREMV

T3: surface CD81 (human, UniProt P60033)
T3 construct: also called CD81 on cells
T3 sequence (tetraspanin chain, looked up): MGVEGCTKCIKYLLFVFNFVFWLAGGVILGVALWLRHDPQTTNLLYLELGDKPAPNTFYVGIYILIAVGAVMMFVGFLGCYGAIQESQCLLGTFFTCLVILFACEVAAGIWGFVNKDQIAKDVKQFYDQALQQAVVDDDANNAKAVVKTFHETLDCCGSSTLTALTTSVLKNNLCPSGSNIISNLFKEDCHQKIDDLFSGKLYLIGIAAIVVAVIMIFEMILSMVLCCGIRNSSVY

T4: CD9-3×FLAG-rabbitFc-Sortase-biotin (human; rabbit, biotin attached at the C-terminus by Sortase A with a GGG-biotin nucleophile; the HIS tag is removed by that reaction)
T4 construct: also called CD9-EC2-3×FLAG-rabbitFc; recombinant CD9-EC2 protein; not shown: Fc region (CH2-CH3) of a rabbit IgG1 protein, amino acids 108-322, UniProt P01870
T4 chain (part 1 of 2): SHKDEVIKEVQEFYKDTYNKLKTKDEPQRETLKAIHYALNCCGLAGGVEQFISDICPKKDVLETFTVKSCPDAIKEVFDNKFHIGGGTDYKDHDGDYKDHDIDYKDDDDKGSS
T4 chain (part 2 of 2): GGGSLPETGGHHHHHH

T5: human CD9 (human, UniProt P21926 2-228)
T5 construct: Natural CD9 on tumor cell lines, primary cells and platelets, or in their lysates (Western blot, immunoprecipitation); also called MRP-1; MIC3
T5 sequence: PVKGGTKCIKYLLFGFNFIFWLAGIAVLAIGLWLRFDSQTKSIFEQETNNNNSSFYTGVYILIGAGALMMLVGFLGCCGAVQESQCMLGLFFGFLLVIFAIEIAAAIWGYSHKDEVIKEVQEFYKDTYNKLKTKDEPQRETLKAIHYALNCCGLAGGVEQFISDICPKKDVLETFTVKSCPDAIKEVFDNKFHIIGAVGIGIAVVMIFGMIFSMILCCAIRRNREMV


Experiments:
[1] = biological target: T1, m4 circular peptide …; test: ELISA and SPR
mouse CD9 on platelets = biological target: T2, mouse CD9 on platelets; test: flow cytometry on NSG mouse blood, IgG-bio SA-PeCy7
surface CD81 = biological target: T3, surface CD81; test: flow cytometry, AT14-12 (IgG1) against AT10-02 (IgG1) on transduced HL-60 cells
[2] = biological target: T4, CD9-3×FLAG-rabbitFc-Sortase-biotin; test: SPR on CD9 coated chip, CHO production supernatant
[3] = biological target: T4, CD9-3×FLAG-rabbitFc-Sortase-biotin; test: SPR on CD9-3xFLAG-rabbitFc-Sortase-biotin spots, CHO production supernatant; unit and power of ten from the legend paragraph 219
[4] = biological target: T4, CD9-3×FLAG-rabbitFc-Sortase-biotin; test: SPR on CD9-3xFLAG-rabbitFc-Sortase-biotin spots, CHO production supernatant; unit from the legend paragraph 219
human CD9 = biological target: T5, human CD9; test: flow cytometry on melanoma (MelWBO) cells, CHO supernatant
[5] = biological target: T4, CD9-3×FLAG-rabbitFc-Sortase-biotin; test: SPR (IBIS), B cell supernatant on the CD9 spot; unit inferred

Binder	koff [3] [s⁻¹]	kon [3] [M⁻¹ s⁻¹]	Kd [4] [nM]	binding result (human CD9)	Kd [5] [nM]	also measured
antibody AT14-012 (antibody, V domains shown, also called AT1412; WT AT14-012) VH: EVQVVESGGGLVQPGRSLRLSCAASGFTFDDYAMHWVRQAPGKGLEWVSGISWNSGSIVYADSVKGRFTISRDNAKNSLYLQLNSLRAEDTAFYYCAKAVSGYYPYFDYWGQGILVTVSS VL: not shown						binding result [1]: no binding; binding result (mouse CD9 on platelets): no binding
AT14-012 recombinant antibody engineered as an IgG1 (antibody, V domains shown, Some experiments used Alexa647 or biotin labelled antibody, or a sortase-tagged (ST) heavy chain. None of this is carried in the letters., May be the same molecule as m1 if m1 stands for the IgG1 form; also called AT14-012 IgG1) VH: EVQVVESGGGLVQPGRSLRLSCAASGFTFDDYAMHWVRQAPGKGLEWVSGISWNSGSIVYADSVKGRFTISRDNAKNSLYLQLNSLRAEDTAFYYCAKAVSGYYPYFDYWGQGILVTVSS VL: not shown						binding result (surface CD81): no binding
AT14-012 single mutant H40Y (antibody, V domains shown) VH: EVQVVESGGGLVQPGRSLRLSCAASGFTFDDYAMYWVRQAPGKGLEWVSGISWNSGSIVYADSVKGRFTISRDNAKNSLYLQLNSLRAEDTAFYYCAKAVSGYYPYFDYWGQGILVTVSS VL: not shown	0.000202	372000	0.543	binds		fold enhancement of affinity against WT AT14-012 [2]: 100 times
AT14-012 single mutant Y112F (antibody, V domains shown) VH: EVQVVESGGGLVQPGRSLRLSCAASGFTFDDYAMHWVRQAPGKGLEWVSGISWNSGSIVYADSVKGRFTISRDNAKNSLYLQLNSLRAEDTAFYYCAKAVSGYFPYFDYWGQGILVTVSS VL: not shown	0.000203	185000	1.09	binds		fold enhancement of affinity against WT AT14-012 [2]: 50 times
2H15 B cell subclone 2D12 (antibody, V domains shown, group 2; B cell supernatant) VH: EVQVVESGGGLVQPGRSLRLSCAASGFTFDDYAMHWVRQAPGKGLEWVSGISWNSGSIVYADSVKGRFTISRDNAKNSLYLQLNSLRAEDTAFYYCAKAVSGYYPYFHYWGQGILVTVSS VL: not shown					5.2	
2H15 B cell subclone 1F5 (antibody, V domains shown, group 1; B cell supernatant) VH: EVQVVESGGGLVQPGRSLRLSCAASGFTFDDYAMHWVRQAPGKGLEWVSGISWNSGSIVYADSVKGRFTISRDNAKNSLYLQLNSLRAEDTAFYYCAKAVSGYFPYFDYWGQGILVTVSS VL: not shown					3.8	
2H15 B cell subclone 1D5 (antibody, V domains shown, group 1; B cell supernatant) VH: EVQVVESGGGLVQPGRSLRLSCAASGFTFDDYAMYWVRQAPGKGLEWVSGISWNSGSIVYADSVKGRFTISRDNAKNSLYLQLNSLRAEDTAFYYCAKAVSGYYPYFDYWGQGILVTVSS VL: not shown					2.3	
AT14-012 double mutant D116H/T29N (antibody, V domains shown, also called combination of the two group 2 mutations) VH: EVQVVESGGGLVQPGRSLRLSCAASGFNFDDYAMHWVRQAPGKGLEWVSGISWNSGSIVYADSVKGRFTISRDNAKNSLYLQLNSLRAEDTAFYYCAKAVSGYYPYFHYWGQGILVTVSS VL: not shown	0.00297	708000	4.19	binds		
2H15 B cell subclone 4D4 (antibody, IgG3, V domains shown, group 2; B cell supernatant, IgG3) VH: EVQVVESGGGLVQPGRSLRLSCAASGFTFDDYAMHWVRQAPGKGLEWVSGISWNSGSIVYADSVKGRFTISRDNAKNSLYLQLNSLRAEDTAFYYCAKAVSGYYPYFDYWGQGILVTVSS VL: DIVMTQSPDSLSVSLGERATINCKSSQSVLYSSNNKNYLGWYQQKPGQPPKLLIYWASIRESGVPDRFSGSGSGTDFTLTISSPQAEDVAVYYCQQYYTTPSTFGQGTRLEIK					15.9	
2H15 B cell subclone 4H10 (antibody, V domains shown, group 1; B cell supernatant) VH: EVQVVESGGGLVQPGRSLRLSCAASGFTFDDYAMYWVRQAPGKGLEWVSGISWNSGSIVYADSVKGRFTISRDNAKNSLYLQLNSLRAEDTAFYYCAKAVSGYYPYFDYWGQGILVTVSS VL: not shown					6.1	
AT14-012 quadruple mutant H40Y/Y112F/D116H/T29N (antibody, V domains shown, also called quadruple variant) VH: EVQVVESGGGLVQPGRSLRLSCAASGFNFDDYAMYWVRQAPGKGLEWVSGISWNSGSIVYADSVKGRFTISRDNAKNSLYLQLNSLRAEDTAFYYCAKAVSGYFPYFHYWGQGILVTVSS VL: not shown	6.92e-05	153000	0.455	binds		Kd [2]: ~0.455 nM; fold lower affinity against the group 1 double mutant (H40Y/Y112F) [2]: 2 times
AT14-012 single mutant D116H (antibody, V domains shown) VH: EVQVVESGGGLVQPGRSLRLSCAASGFTFDDYAMHWVRQAPGKGLEWVSGISWNSGSIVYADSVKGRFTISRDNAKNSLYLQLNSLRAEDTAFYYCAKAVSGYYPYFHYWGQGILVTVSS VL: not shown	0.00217	470000	4.62	binds		fold enhancement of affinity against WT AT14-012 [2]: 10 times
AT14-012 double mutant H40Y/Y112F (antibody, V domains shown, also called double group 1 mutant; combination group 1 mutant) VH: EVQVVESGGGLVQPGRSLRLSCAASGFTFDDYAMYWVRQAPGKGLEWVSGISWNSGSIVYADSVKGRFTISRDNAKNSLYLQLNSLRAEDTAFYYCAKAVSGYFPYFDYWGQGILVTVSS VL: not shown	3.69e-05	164000	0.219	binds		Kd [2]: ~0.22 nM; fold enhancement of affinity against WT AT14-012 [2]: 250 times
AT14-012 single mutant T29N (antibody, V domains shown) VH: EVQVVESGGGLVQPGRSLRLSCAASGFNFDDYAMHWVRQAPGKGLEWVSGISWNSGSIVYADSVKGRFTISRDNAKNSLYLQLNSLRAEDTAFYYCAKAVSGYYPYFDYWGQGILVTVSS VL: not shown	0.00126	25900	50.1	binds		
2H15 B cell subclone 10D1 (antibody, V domains shown, group 1; B cell supernatant) VH: EVQVVESGGGLVQPGRSLRLSCAASGFTFDDYAMYWVRQAPGKGLEWVSGISWNSGSIVYADSVKGRFTISRDNAKNSLYLQLNSLRAEDTAFYYCAKAVSGYYPYFDYWGQGILVTVSS VL: not shown					3.9	
